Experimental data as given in patent US20030171557.

What was measured:
[1] = molecular target: T1, IkBα C-terminal peptide
T1 chain: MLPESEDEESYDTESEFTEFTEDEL

[2] = molecular target: GST-IkBα protein [GST: P08515]
[3] = molecular target: casein (Sigma)
[4] = molecular target: GST protein [GST: P08515]
GST protein [GST: P08515], sequence (P08515 whole entry): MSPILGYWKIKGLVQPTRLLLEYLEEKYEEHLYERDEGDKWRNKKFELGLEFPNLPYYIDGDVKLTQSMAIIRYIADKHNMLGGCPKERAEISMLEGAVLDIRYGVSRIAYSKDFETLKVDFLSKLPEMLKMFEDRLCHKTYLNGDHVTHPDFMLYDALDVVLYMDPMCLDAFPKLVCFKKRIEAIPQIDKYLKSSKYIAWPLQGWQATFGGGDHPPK

B1: GST fusion protein with wild VRK1 protein (protein)
chain: MPRVKAAQAGRQSSAKRHLAEQFAVGEIITDMAKKEWKVGLPIGQGGFGCIYLADMNSSESVGSDAPCVVKVEPSDNGPLFTELKFYQRAAKPEQIQKWIRTRKLKYLGVPKYWGSGLHDKNGKSYRFMIMDRFGSDLQKIYEANAKRFSRKTVLQLSLRILDILEYIHEHEYVHGDIKASNLLLNYKNPDQVYLVDYGLAYRYCPEGVHKEYKEDPKRCHDGTIEFTSIDAHNGVAPSRRGDLEILGYCMIQWLTGHLPWEDNLKDPKYVRDSKIRYRENIASLMDKCFPEKNKPGEIAKYMETVKLLDYTEKPLYENLRDILLQGLKAIGSKDDGKLDLSVVENGGLKAKTITKKRKKEIEESKEPGVEDTEWSNTQTEEAIQTRSRTRKRVQK
[1]
  kinase assay, phosphorylation of substrate ([γ-32P]-ATP, SDS-PAGE): Arrows indicate ... phosphorylated IkBα C-terminal peptide (“P”)
[2]
  kinase assay, phosphorylation of substrate ([γ-32P]-ATP, SDS-PAGE, 10 mM Mg): wild VRK1 protein phosphorylates casein and GST-IkBα
[3]
  kinase assay with casein as substrate in the presence of Mg, Mn, Zn or Ca at 2 mM or 10 mM: VRK1 exhibits phosphorylation activity in the presence of all divalent cations except for Zn ... especially strong activity in the presence of Mn
  kinase assay, phosphorylation of substrate ([γ-32P]-ATP, SDS-PAGE, 10 mM Mg): wild VRK1 protein phosphorylates casein and GST-IkBα
[4]
  kinase assay, phosphorylation of substrate ([γ-32P]-ATP, SDS-PAGE, 10 mM Mg): GST protein was not phosphorylated by VRK1
